For the experiment, the system named is engineered chimeric receptor SEQ ID NO: 33 and its mutants (human α7-nAChR ligand binding domain / human GlyRα1 ion pore domain) in Lenti-X 293T cells. The experiment in a line: YFP fluorescence quenching anion reporter plate reader assay (percent quench, EC50). It is filed as cell-based. To be noted: for YFP fluorescence quenching using CNL001 (percent quench): receptor named in row; for YFP fluorescence quenching using Varenicline, 3 nM var: ligand Varenicline 3 nM; for YFP fluorescence quenching using Varenicline, 30 nM var: ligand Varenicline 30 nM; for YFP fluorescence quenching using Varenicline, 300 nM var: ligand Varenicline 300 nM; for YFP fluorescence quenching using Varenicline, 500 nM var: ligand Varenicline 500 nM; for YFP fluorescence quenching using Varenicline, 1 uM var: ligand Varenicline 1 uM; for EC50: ligand TC-5619, YFP plate reader. Summed up: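 Lenti-X 293T cells co-expressing an anion-quenchable YFP were transiently transfected with receptor DNA, then ligand was added in NaI-substituted buffer (pH 7.2) after 30 min at 37 °C. Fluorescence was read about 2 min; percent quench = mean of last 10 s over 15 s pre-ligand baseline.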

The mark [1] stands for this setting: 1 nM CNL001, first column so headed.
Where [2] appears, read: 1 nM CNL001, second column so headed.
Where [3] appears, read: 1 nM brd (TC-5619/Bradanicline).
[4] abbreviates: 3 nM brd (TC-5619/Bradanicline).
The mark [5] stands for this setting: 10 nM CNL001, first column so headed.
Where [6] appears, read: 10 nM CNL001, second column so headed.
The mark [7] stands for this setting: 10 nM brd (TC-5619/Bradanicline).
The mark [8] stands for this setting: 30 nM brd (TC-5619/Bradanicline).
Setting [9] is: 50 nM CNL001, first column so headed.
The mark [10] stands for this setting: 50 nM CNL001, second column so headed.
[11] abbreviates: 100 nM CNL001, first column so headed.
Setting [12] is: 100 nM CNL001, second column so headed.
[13] abbreviates: 100 nM brd (TC-5619/Bradanicline).
Where [14] appears, read: 300 nM brd (TC-5619/Bradanicline).
The mark [15] stands for this setting: 1 uM CNL001, first column so headed.
Setting [16] is: 1 uM CNL001, second column so headed.

Positions count from the first letter of the chain named. Names and notes keep the numbering of the source.

B1: CODA1048: engineered receptor: R101F, Y210F in SEQ ID NO: 33 (protein)
chain: MRCSPGGVWLALAASLLHVSLQGEFQRKLYKELVKNYNPLERPVANDSQPLTVYFSLSLLQIMDVDEKNQVLTTNIWLQMSWTDHYLQWNVSEYPGVKTVFFPDGQIWKPDILLYNSADERFDATFHTNVLVNSSGHCQYLPPGIFKSSCPMDLKNFPMDVQTCKLKFGSWSYGGWSLDLQMQEADISGYIPNGEWDLVGIPGKRSERFFECCKEPYPDVTFTVTMRRRMGYYLIQMYIPSLLIVILSWISFWINMDAAPARVGLGITTVLTMTTQSSGSRASLPKVSYVKAIDIWMAVCLLFVFSALLEYAAVNFVSRQHKELLRFRRKRRHHKSPMLNLFQEDEAGEGRFNFSAYGMGPACLQAKDGISVKGANNSNTTNPPPAPSKSPEEMRKLFIQRAKKIDKISRIGFPMAFLIFNMFYWIIYKIVRREDVHNQ
modifications: synthetic sequence of chimeric LGIC
For the molecule B1, the “YFP fluorescence quenching using CNL001 (percent quench)” value under setting [1] is recorded as 9.114%; the “YFP fluorescence quenching using CNL001 (percent quench)” value under setting [2] stood at 0.845%; the “YFP fluorescence quenching using CNL001 (percent quench)” value under setting [5] is 28.944%; the “YFP fluorescence quenching using CNL001 (percent quench)” value under setting [6] is reported as 53.629%; the “YFP fluorescence quenching using CNL001 (percent quench)” value under setting [9] is given as 68.581%; the “YFP fluorescence quenching using CNL001 (percent quench)” value under setting [10] came out at 74.379%. Further, the “YFP fluorescence quenching using CNL001 (percent quench)” value runs as follows: under setting [11], 80.541%; under setting [12], 80.774%; under setting [15], 83.143%; under setting [16], 81.751%. The “YFP fluorescence quenching using TC-5619/Bradanicline (percent quench)” value under setting [3] is given as −2.084%; the “YFP fluorescence quenching using TC-5619/Bradanicline (percent quench)” value under setting [4] is listed as −9.098%; the “YFP fluorescence quenching using TC-5619/Bradanicline (percent quench)” value under setting [7] is on record as −2.587%; the “YFP fluorescence quenching using TC-5619/Bradanicline (percent quench)” value under setting [8] is reported as 55.818%; the “YFP fluorescence quenching using TC-5619/Bradanicline (percent quench)” value under setting [13] is listed as 76.957%; the “YFP fluorescence quenching using TC-5619/Bradanicline (percent quench)” value under setting [14] is recorded as 74.268%. For the same molecule, the “YFP fluorescence quenching using TC-6683 (percent quench)” value by setting is: (30 nM TC-6683) −29.055%; (300 nM TC-6683) −33.935%; (3 uM TC-6683) −24.613%; (30 uM TC-6683) −21.752%; (100 uM TC-6683) −22.815%. The “YFP fluorescence quenching using ABT-126 (percent quench)” value is reported as −23.28% (50 nM abt (ABT-126)), −21.78% (100 nM abt (ABT-126)), −19.35% (300 nM abt (ABT-126)) and −16.33% (1 uM abt (ABT-126)). Further, the “YFP fluorescence quenching (percent quench)” value by setting is: (100 uM ach (acetylcholine)) −17.31%; (300 uM ach (acetylcholine)) −13.7%; (500 uM ach (acetylcholine)) −10.1%; (1 mM ach (acetylcholine)) 5.53%; (3 mM ach (acetylcholine)) 68.61%; (10 mM ach (acetylcholine)) 78.22%. In addition, the “YFP fluorescence quenching using Varenicline, 3 nM var” value reads like this: (first column) −17.119; (second column) −13.234. Moreover, the “YFP fluorescence quenching using Varenicline, 30 nM var” value is −7.747 (first column) and 4.193 (second column). In addition, the “YFP fluorescence quenching using Varenicline, 300 nM var” value by setting is: (first column) 4.149; (second column) 1.512. In addition, the “YFP fluorescence quenching using Varenicline, 500 nM var” value by setting is: (first column) −1.572; (second column) 3.71. Moreover, the “YFP fluorescence quenching using Varenicline, 1 uM var” value (“YFP fluorescence quenching … 1 uM var” for short) runs as follows: (first column) 8.414; (second column) 4.091.

B2: CODA1054: engineered receptor: R101M, L131F in SEQ ID NO: 33 (protein)
chain: B1 chain with F101M, L131F, F210Y
modifications: synthetic sequence of chimeric LGIC
Take B2: the “YFP fluorescence quenching using CNL001 (percent quench)” value under setting [1] is 21.932%; the “YFP fluorescence quenching using CNL001 (percent quench)” value under setting [2] is 39.689%; the “YFP fluorescence quenching using CNL001 (percent quench)” value under setting [5] is reported as 54.192%; the “YFP fluorescence quenching using CNL001 (percent quench)” value under setting [6] was 64.111%; the “YFP fluorescence quenching using CNL001 (percent quench)” value under setting [9] is given as 71.409%; the “YFP fluorescence quenching using CNL001 (percent quench)” value under setting [10] turned out to be 70.989%. In addition, the “YFP fluorescence quenching using CNL001 (percent quench)” value reads like this: under setting [11], 74.148%; under setting [12], 71.722%; under setting [15], 71.378%; under setting [16], 71.411%. Moreover, the “YFP fluorescence quenching using TC-5619/Bradanicline (percent quench)” value by setting is: under setting [3], 6.609%; under setting [4], −7.635%; under setting [7], 4.459%; under setting [8], 69.782%; under setting [13], 77.633%; under setting [14], 72.933%. Besides, the “YFP fluorescence quenching using TC-6683 (percent quench)” value is listed as −22.996% (30 nM TC-6683); −27.055% (300 nM TC-6683); −18.611% (3 uM TC-6683); −13.879% (30 uM TC-6683); −21.521% (100 uM TC-6683). The “YFP fluorescence quenching using ABT-126 (percent quench)” value (50 nM abt (ABT-126)) is −19.54%, the “YFP fluorescence quenching using ABT-126 (percent quench)” value (100 nM abt (ABT-126)) is listed as −18.28%, the “YFP fluorescence quenching using ABT-126 (percent quench)” value (300 nM abt (ABT-126)) is −16.87% and the “YFP fluorescence quenching using ABT-126 (percent quench)” value (1 uM abt (ABT-126)) is reported as −11.77%. For the same molecule, the “YFP fluorescence quenching (percent quench)” value is reported as −3.98% (10 uM ach (acetylcholine)); −10.34% (100 uM ach (acetylcholine)); −10.25% (300 uM ach (acetylcholine)); −11.46% (500 uM ach (acetylcholine)); 1.77% (1 mM ach (acetylcholine)); 36.81% (3 mM ach (acetylcholine)). The “YFP fluorescence quenching (percent quench)” value (10 mM ach (acetylcholine)) came to 74.02%. Also, the “YFP fluorescence quenching using Varenicline, 3 nM var” value reads like this: (first column) 34.923; (second column) 28.944. Besides, the “YFP fluorescence quenching using Varenicline, 30 nM var” value by setting is: (first column) 42.214; (second column) 43.015. Also, the “YFP fluorescence quenching using Varenicline, 300 nM var” value was 47.059 (first column) and 52.768 (second column). Also, the “YFP fluorescence quenching using Varenicline, 500 nM var” value is, setting by setting: (first column) 59.542; (second column) 62.641. Also, the “YFP fluorescence quenching … 1 uM var” value (first column) worked out at 71.449 and the “YFP fluorescence quenching … 1 uM var” value (second column) stood at 69.145.

B3: COAD1056 (protein)
chain: B1 chain with Y115E, F210W
modifications: synthetic sequence of chimeric LGIC
Take B3: the EC50 is 0.0251 µM.

B4: COAD1055 (protein)
chain: B1 chain with F101W, Y115E, F210W
modifications: synthetic sequence of chimeric LGIC
B4 gave an EC50 of 0.0235 µM.

The term EC50 denotes the concentration giving half of the maximal effect.
